Experimental data taken from patent US20110039779A1 (published 2011).
Where “and” joins values, the source holds several entries; their conditions need not be identical. Equal values may be shown once. Where no end group is shown, it is not given here. [ ]: non-standard residue; d: D form. pGlu = O=C1CC[C@@H](C(=O)O)N1

How the values were obtained:
[1] = target: T1, Human IGF-1R (HIGF-1R), purified from BHK cells stably transfected with IGF-1R cDNA (human, UniProt P08069 31-1367); assay: competition with 125I-IGF-1 on purified HIGF-1R (PEG or SPA assay; the sentence does not say which)
T1 construct: mature; Detergent-solubilised whole receptor, not on cells; form 'mature' is my reading of 'purified from ... cells stably transfected with IGF-1R cDNA'; also called human insulin-like growth factor-1 receptor; purified HIGF-1R
T1 sequence (P08069 31-1367 limits assumed): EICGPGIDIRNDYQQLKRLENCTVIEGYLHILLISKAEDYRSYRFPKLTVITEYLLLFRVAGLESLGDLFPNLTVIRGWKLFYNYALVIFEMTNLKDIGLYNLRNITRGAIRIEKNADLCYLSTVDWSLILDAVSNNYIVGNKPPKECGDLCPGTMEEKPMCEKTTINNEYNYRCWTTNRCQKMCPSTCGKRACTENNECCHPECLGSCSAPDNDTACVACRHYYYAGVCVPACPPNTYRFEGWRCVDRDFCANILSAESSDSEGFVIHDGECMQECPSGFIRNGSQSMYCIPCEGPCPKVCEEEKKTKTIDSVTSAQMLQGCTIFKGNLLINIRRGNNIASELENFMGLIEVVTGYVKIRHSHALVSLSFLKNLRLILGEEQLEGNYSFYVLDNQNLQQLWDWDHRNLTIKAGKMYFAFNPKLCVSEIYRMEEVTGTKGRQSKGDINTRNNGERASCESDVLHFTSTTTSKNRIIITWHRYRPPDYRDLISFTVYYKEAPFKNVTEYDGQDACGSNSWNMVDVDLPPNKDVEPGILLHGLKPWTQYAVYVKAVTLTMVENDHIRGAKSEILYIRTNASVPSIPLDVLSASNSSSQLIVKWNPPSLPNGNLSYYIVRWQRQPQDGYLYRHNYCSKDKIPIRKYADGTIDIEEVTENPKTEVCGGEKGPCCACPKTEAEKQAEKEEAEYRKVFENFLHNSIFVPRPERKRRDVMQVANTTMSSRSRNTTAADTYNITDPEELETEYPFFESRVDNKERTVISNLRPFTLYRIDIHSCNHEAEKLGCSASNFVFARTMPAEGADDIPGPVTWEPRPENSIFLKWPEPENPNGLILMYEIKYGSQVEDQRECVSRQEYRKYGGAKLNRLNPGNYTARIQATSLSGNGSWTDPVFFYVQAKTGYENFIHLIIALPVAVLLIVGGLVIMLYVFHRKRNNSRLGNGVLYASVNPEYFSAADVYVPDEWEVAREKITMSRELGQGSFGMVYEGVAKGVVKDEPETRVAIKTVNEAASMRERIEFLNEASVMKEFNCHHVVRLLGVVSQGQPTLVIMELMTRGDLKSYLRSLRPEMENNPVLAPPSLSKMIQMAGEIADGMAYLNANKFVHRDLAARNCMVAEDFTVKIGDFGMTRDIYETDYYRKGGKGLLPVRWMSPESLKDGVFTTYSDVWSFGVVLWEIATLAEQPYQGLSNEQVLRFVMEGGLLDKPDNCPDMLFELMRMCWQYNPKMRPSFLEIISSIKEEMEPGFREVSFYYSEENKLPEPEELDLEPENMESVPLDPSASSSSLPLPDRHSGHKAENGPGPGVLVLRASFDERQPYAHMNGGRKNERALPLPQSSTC

[2] = target: IGF-1R on SW480, MCF-7 and MiaPaCa cells (human, UniProt P08069 31-1367); assay: cell-based or functional assay
[3] = target: T2, His-tagged soluble recombinant human IGF-IR (srhIGF-1R-his; R&D systems) (human, UniProt P08069 31-935); assay: AlphaScreen competition with biotinylated hIGF-1 on srhIGF-1R-his
T2 construct: extracellular domain; Bought protein; also called extra-cellular domain of IGF-1R; not shown: His tag
Experimental: Binding Assays. […] Detection of the receptor ligand interaction was measured in an amplified luminescent proximity homogeneous assay (ALPHAScreen; BioSignal-Packard, Montreal). The assay was performed in 384-well Nunc™ white polystyrene microplates (Nalge Nunc International, Naperville, Ill.) with a final volume of 40 μL. […] Each concentration of competitor was assayed in duplicate. […] The second step of the assay was to add acceptor beads and the incubation continued for 0.5 hr. The final step was to add donor beads and the incubation continued for an additional 1 hr. […] Primary data were background corrected, normalized to buffer controls and then expressed as % Specific Binding. The data were fit to a four-parameter non-linear regression analysis (y=min+(max-min)/(1+10̂((log IC₅₀-x)*Hillslope))), which was used to determine IC₅₀ values. The Z′-factor for this assay is greater than 0.7 (Z′=1-(3σ++3σ−)/|μ+−μ−|) and the signal-to-background (SB) ratio was between 40 and 70.

IGF-1R on SW480 cells [4] = target: T3, IGF-1R on SW480 cells (UniProt P08069 31-1367, limits assumed); assay: cell-based or functional assay
[5] = target: T4, IGF-1R on MCF-7 cells (MCF-7S8, MCF7) (human, UniProt P08069 31-1367); assay: cell-based or functional assay
[6] = target: Human IGF-1R (HIGF-1R), purified from BHK cells stably transfected with IGF-1R cDNA (human, UniProt P08069 31-1367); assay: cell-based or functional assay
Target sequence in this assay (P08069 31-1367 limits assumed): as above

[7] = target: T4, IGF-1R on MCF-7 cells (MCF-7S8, MCF7); assay: cell-based or functional assay; remark: listed apart in the source
IGF-1R on SW480 cells [8] = target: T3, IGF-1R on SW480 cells; assay: cell-based or functional assay; remark: listed apart in the source
IGF-1R on L6 cells [9] = assay: cell-based or functional assay
[10] = target: T1, Human IGF-1R (HIGF-1R), purified from …; assay: cell-based or functional assay; remark: listed apart in the source
IGF-1R on L6 cells [11] = assay: cell-based or functional assay; remark: listed apart in the source
Target sequence in this assay (P24062 31-737, chain 1 of 2): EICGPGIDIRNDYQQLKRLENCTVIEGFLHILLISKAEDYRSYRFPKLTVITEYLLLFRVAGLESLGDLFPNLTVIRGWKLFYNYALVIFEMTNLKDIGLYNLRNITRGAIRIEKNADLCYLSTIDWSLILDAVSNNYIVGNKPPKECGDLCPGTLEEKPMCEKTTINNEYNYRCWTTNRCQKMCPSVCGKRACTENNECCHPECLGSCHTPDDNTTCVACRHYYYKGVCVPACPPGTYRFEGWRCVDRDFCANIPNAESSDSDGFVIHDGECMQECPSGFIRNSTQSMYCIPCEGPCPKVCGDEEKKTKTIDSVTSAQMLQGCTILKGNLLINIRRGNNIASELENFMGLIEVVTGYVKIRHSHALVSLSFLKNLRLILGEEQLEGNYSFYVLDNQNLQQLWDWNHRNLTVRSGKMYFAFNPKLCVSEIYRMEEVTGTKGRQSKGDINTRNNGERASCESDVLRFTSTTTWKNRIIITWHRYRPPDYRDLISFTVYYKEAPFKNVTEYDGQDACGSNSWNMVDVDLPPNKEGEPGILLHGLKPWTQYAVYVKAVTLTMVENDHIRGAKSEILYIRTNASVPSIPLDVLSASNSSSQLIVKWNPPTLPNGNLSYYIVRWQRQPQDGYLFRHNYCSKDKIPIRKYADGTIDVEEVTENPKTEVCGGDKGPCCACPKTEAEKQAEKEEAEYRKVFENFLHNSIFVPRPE
Target sequence in this assay (P24062 742-1370, chain 2 of 2): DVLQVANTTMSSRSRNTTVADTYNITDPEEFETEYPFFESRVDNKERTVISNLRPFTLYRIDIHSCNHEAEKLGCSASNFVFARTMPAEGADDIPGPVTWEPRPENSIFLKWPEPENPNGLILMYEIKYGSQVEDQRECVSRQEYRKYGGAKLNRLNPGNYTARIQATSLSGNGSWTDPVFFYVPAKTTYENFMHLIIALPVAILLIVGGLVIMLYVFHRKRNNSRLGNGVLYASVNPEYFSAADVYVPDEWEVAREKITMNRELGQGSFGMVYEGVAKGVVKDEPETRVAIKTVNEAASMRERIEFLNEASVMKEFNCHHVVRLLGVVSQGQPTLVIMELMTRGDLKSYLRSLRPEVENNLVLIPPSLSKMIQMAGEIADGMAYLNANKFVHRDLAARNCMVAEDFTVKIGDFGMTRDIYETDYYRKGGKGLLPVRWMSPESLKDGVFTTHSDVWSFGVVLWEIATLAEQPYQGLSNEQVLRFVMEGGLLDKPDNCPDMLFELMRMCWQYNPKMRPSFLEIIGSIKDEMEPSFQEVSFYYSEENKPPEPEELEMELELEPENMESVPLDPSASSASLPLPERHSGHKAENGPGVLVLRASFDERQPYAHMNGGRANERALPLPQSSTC

Sequence of IGF-1R on SW480, MCF-7 and MiaPaCa cells (P08069 31-1367): as the sequence (P08069 31-1367 limits assumed) above
T3 sequence (P08069 31-1367 limits assumed): as above
T4 sequence (P08069 31-1367): as the sequence (P08069 31-1367 limits assumed) above
T2 sequence (P08069 31-935): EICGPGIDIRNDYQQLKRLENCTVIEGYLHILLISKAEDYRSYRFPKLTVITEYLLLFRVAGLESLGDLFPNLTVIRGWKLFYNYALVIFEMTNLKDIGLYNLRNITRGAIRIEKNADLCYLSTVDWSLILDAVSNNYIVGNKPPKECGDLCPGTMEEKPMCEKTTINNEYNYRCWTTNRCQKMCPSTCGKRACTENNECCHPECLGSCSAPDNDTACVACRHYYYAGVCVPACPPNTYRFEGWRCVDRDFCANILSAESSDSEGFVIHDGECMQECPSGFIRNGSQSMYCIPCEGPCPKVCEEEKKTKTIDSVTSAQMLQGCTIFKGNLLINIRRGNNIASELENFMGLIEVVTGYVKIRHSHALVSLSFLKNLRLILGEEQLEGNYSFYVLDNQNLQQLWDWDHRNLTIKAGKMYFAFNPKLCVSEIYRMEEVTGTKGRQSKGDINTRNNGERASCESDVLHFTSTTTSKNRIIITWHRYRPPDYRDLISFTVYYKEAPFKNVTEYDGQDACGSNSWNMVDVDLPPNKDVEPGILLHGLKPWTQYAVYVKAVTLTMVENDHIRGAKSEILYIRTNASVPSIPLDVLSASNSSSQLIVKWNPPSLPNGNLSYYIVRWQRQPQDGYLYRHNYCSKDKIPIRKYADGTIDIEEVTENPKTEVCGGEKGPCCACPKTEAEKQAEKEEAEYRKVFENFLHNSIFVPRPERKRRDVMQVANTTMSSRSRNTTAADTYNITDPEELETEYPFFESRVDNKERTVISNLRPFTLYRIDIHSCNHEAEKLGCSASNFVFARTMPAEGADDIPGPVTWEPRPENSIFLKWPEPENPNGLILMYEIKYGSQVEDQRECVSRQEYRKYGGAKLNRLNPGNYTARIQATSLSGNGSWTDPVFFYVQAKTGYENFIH

B1: F364 (peptide)
peptide: FVQDDCRGRPCGDADSFYEWFDQQAGYGSSSRRAPQT
B1 showed a Kd [1] of 50 nM.

B2: F138P (peptide)
peptide: [pGlu]FYGCLLDLSLGVPSFGWRRRCITA
modifications: cysteine pairing not given here
B2 was tested, and the “IC50, IGF-1 dependent growth in SW480” value [2] was 500 nM.

B3: RP6 (peptide)
peptide: TFYSCLASLLTGTPQPNRGPWERCR
B3 showed an IC50 [3] of 2700 nM.

B4: F264 (peptide)
peptide: RQWDCRGRPCGDAESFYEWFDQQRS
With B4 the “IC50, IGF-1 dependent growth in SW480 cells” value [2] was over 1000 nM.

B5: F270 (peptide)
peptide: ESYGDCRDRPCGDAPNFYDWFVQQASE
B5 was tested, and the “IC50, IGF-1 dependent growth in SW480” value [2] was 2000 nM.

B6: F207 (peptide)
peptide: EFGRGYGGDGGGYWSGYEWLAE
In the case of B6, the “IC50 in SW480 (M) in presence of IGF-1” value (IGF-1R on SW480 cells [4]) is reported as 2e-06 M, the “IC50 in MCF-7S8, in presence of IGF-1” value [5] is reported as 2000 nM and the “IC50 in kinase assay (M), IGF-1R kinase activation by 10 nM IGF-1” value (from here on “IC50 in kinase assay (M)”) [6] is reported as 2e-07 M.

B7: F392 (peptide)
peptide: QFYGCLLDLSLGVPSFGWKKKCITA
With B7 the “IC50, IGF-1 dependent growth of SW480” value [2] was 800 nM.

B8: F441 (peptide)
peptide: SFYDCLLDLSIGGPSSDWRRRCITA
For B8, the “MCF7 IC50” value [7] was 240 nM and 180 nM.

B9: F259 (peptide)
peptide: SFYSCLESLVAGPAEKSRGQWEGCRK
With B9 the “IC50, IGF-1 (10 nM)-induced proliferation of SW480 cells, exp. 13262-014” value (IGF-1R on SW480 cells [8]) was over 10000 nM, the “IC50 in SW480 (M) in presence of IGF-1” value (IGF-1R on SW480 cells [4]) was 2e-06 M and the “IC50 in MCF-7S8, in presence of IGF-1” value [5] was 5000 nM and 2000 nM.

B10: F250 (peptide)
peptide: SFYSCLESLVNGPAEKSRGQWDGCRK
For B10, the “IC50 in SW480 (M) in presence of IGF-1” value (IGF-1R on SW480 cells [4]) was 2e-06 M and 1e-06 M and the “IC50 in MCF-7S8, in presence of IGF-1” value [5] was 2000 nM.

B11: F293 (peptide)
peptide: SFYSCLESLVQGPAEKSRGQWEGCRK
B11 was tested, and the “IC50 in SW480 (M), peptide alone” value (IGF-1R on SW480 cells [4]) was 1e-07 M, the “IC50 in MCF-7S8, in presence of IGF-1” value [5] was 10000 nM and the “IC50 in MCF-7S8, peptide alone” value [5] was over 10000 nM. The “IC50, down regulation of 3 nM IGF-1 stimulation to basal level, IGF-IR, L6 cells” value (IGF-1R on L6 cells [9]) was 500 nM, the “IC50, down regulation of 3 nM IGF-1 stimulation to basal level, IRS-1, L6 cells” value (IGF-1R on L6 cells [9]) was over 1000 nM and the “IC50, down regulation of 3 nM IGF-1 stimulation to basal level, MAPK42, L6 cells” value (IGF-1R on L6 cells [9]) was 1000 nM. The “IC50, down regulation of 3 nM IGF-1 stimulation to basal level, MAPK44, L6 cells” value (IGF-1R on L6 cells [9]) was 500 nM, the “IC50, down regulation of 3 nM IGF-1 stimulation to basal level, PKB/Akt, L6 cells” value (IGF-1R on L6 cells [9]) was over 1000 nM and the “IC50 in kinase assay (M)” value [6] was 1e-07 M. For the same binder, the IC50 [3] was 9 nM.

B12: F230 (peptide)
peptide: ESFYSCLASLVAGTPWPKGGSWERCREE
In the case of B12, the Kd [1] is reported as 20 to 50 nM.

B13: F138 (peptide)
peptide: QFYGCLLDLSLGVPSFGWRRRCITA
With B13 the Kd [1] was 6 to 10 nM, the “IC50, IGF-1 dependent growth in MCF-7” value [2] was 500 nM and the “IC50, IGF-1 dependent growth in SW480” value [2] was 150 nM.

B14: F269 (peptide)
peptide: EVDRDCQARPCGDAANFYDWFGQQGTE
B14 was tested, and the “IC50 in SW480 (M) in presence of IGF-1” value (IGF-1R on SW480 cells [4]) was 5e-07 M, the “IC50 in SW480 (M), peptide alone” value (IGF-1R on SW480 cells [4]) was over 1e-05 M and the “IC50 in kinase assay (M)” value [6] was 8e-07 M.

B15: F292 (peptide)
peptide: SFYSCLESLVTGPAEKSRGQWEGCRK
For B15, the “IC50 in SW480 (M) in presence of IGF-1” value (IGF-1R on SW480 cells [4]) was 1e-07 M, the “IC50 in SW480 (M), peptide alone” value (IGF-1R on SW480 cells [4]) was 1e-06 M and the “IC50 in MCF-7S8, in presence of IGF-1” value [5] was 1000 nM.

B16: F428 (peptide)
peptide: DFYGCLLDLSLGVPSLGWRRRCIT
notes: also called Peptide 428
For B16, the “IC50, IGF-1 dependent growth of SW480” value [2] was 500 nM and 1000 nM.

B17: F213 (peptide)
peptide: EGRVDDAFYEWFERQLGE
For B17, the “IC50 in SW480 (M) in presence of IGF-1” value (IGF-1R on SW480 cells [4]) was 2e-06 M and the “IC50 in MCF-7S8, in presence of IGF-1” value [5] was 2000 nM.

B18: F215 (peptide)
peptide: ESFYSCLESLVNGPAEKSRGQWDGCRE
Work on B18 yielded a Kd [1] of 80 to 300 nM.

B19: F169 (peptide)
peptide: EFSGFCMGLERLSQVSLGYCGAGQGGE
In the case of B19, the “IC50 in SW480 (M) in presence of IGF-1” value (IGF-1R on SW480 cells [4]) is reported as 2e-06 M and the “IC50 in MCF-7S8, in presence of IGF-1” value [5] is reported as 2000 nM.

B20: F259 (peptide)
peptide: SFYSCLESLVAGPAEKSRGQWEGCRK
For B20, the “IC50, IGF-1R kinase activation by IGF-1” value [10] was 200 nM and 300 nM.

B21: F293 (peptide)
peptide: SFYSCLESLVQGPAEKSRGQWEGCRK
For B21, the Kd [1] was 90 nM, the “IC50, IGF-1 dependent growth in MCF-7 cells” value [2] was 10000 nM and the “IC50, growth of L6 cells stimulated by IGF-1 at 3 nM” value (IGF-1R on L6 cells [11]) was over 10000 nM. For the same binder, the “IC50, phosphorylation of IGF-1R and MAPK42/44 in response to IGF-1 treatment” value (IGF-1R on L6 cells [11]) was 500 nM.

B22: F167 (peptide)
peptide: EDWLRCLGVILSGGLTELANTGCVQGE
In the case of B22, the “IC50 in kinase assay (M)” value [6] is reported as 1e-06 M.
